T1: MdHY5 (apple, UniProt L0MZN5 1-164)
T1 sequence: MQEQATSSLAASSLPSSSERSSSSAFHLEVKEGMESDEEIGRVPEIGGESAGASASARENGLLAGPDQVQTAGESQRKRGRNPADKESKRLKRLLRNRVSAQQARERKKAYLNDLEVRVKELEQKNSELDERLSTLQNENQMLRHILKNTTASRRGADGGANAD

T2: MdEIL1 (labelled MdEIN3-HIS in the Fig. 7d figure text) (apple, UniProt D5L144 1-659)
T2 sequence: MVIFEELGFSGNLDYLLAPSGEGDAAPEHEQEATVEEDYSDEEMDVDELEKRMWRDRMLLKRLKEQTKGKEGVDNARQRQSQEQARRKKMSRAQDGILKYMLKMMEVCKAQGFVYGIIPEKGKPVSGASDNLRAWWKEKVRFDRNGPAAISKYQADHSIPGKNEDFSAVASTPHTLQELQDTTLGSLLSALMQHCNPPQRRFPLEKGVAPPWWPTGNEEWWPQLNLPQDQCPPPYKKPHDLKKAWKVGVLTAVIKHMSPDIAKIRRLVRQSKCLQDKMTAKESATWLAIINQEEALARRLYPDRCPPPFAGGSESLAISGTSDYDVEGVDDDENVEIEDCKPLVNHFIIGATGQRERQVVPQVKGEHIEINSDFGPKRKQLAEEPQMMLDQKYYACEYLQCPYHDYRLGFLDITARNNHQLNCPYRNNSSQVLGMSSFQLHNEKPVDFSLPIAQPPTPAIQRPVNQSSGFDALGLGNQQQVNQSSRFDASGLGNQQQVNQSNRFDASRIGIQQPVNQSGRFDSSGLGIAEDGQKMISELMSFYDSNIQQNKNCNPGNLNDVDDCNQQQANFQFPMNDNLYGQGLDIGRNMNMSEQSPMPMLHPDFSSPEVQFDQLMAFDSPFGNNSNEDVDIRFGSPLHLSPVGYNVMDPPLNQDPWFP

T3: MdEIL1 (labelled MdEIN3-HIS in the Fig. 7d figure text);MdHY5 (apple;apple, UniProt D5L144;L0MZN5 1-659;1-164, |)
T3 sequence 1: T2 sequence
T3 sequence 2: T1 sequence

B1: MdERF17-G-box1 hot probe (dsDNA)
DNA 1: GTGTGTTTTATTGCATCATTCACGTGTCATCTTTGCAAAAAATTAG
DNA 2: CTAATTTTTTGCAAAGATGACACGTGAATGATGCAATAAAACACAC
B2: MdERF17-TACAT3 hot probe (dsDNA)
DNA 1: GGTGAGGTTTGGGTTGAATTTACATAATGAGTCACTCATAGTAAA
DNA 2: TTTACTATGAGTGACTCATTATGTAAATTCAACCCAAACCTCACC
B3: MdERF17-G-box3 hot probe (dsDNA)
DNA 1: CCGTATGAGGACAAATAACACACGTGCTTCGAAACCCGTCTCTCTG
DNA 2: CAGAGAGACGGGTTTCGAAGCACGTGTGTTATTTGTCCTCATACGG
B4: MdERF17-G-box2 hot probe (dsDNA)
DNA 1: ATCATATACATATATATATGCACGTTGAAAACTTAGCTCCTTTGTT
DNA 2: AACAAAGGAGCTAAGTTTTCAACGTGCATATATATATGTATATGAT
B5: MdHY5-TACAT hot probe (dsDNA)
DNA 1: GCTTCCCCGTAACCAAGAAATACATGCATTTTCCGTCCAGCACAC
DNA 2: GTGTGCTGGACGGAAAATGCATGTATTTCTTGGTTACGGGGAAGC

Key:
[1] = molecular target: T1, MdHY5; experiment: EMSA; LightShift Chemiluminescent EMSA kit (Thermo); buffer, salt, pH and temperature not stated; cold probe 25x, 50x, 100x; conditions: protein: recombinant; tags: His (pET32a fusion); chain copies: 2; label: 3' biotin on both strands; blunt
[2] = molecular target: T2, MdEIL1 (labelled MdEIN3-HIS in the Fig. …); experiment: as above; conditions: protein: recombinant; tags: His (pET32a fusion); label: 3' biotin on both strands; blunt
[3] = molecular target: T3, MdEIL1 (labelled MdEIN3-HIS in the Fig. …); experiment: EMSA; MdHY5 added to MdEIL1 enhances binding; LightShift Chemiluminescent EMSA kit (Thermo); buffer, salt, pH and temperature not stated; cold probe 25x, 50x, 100x; conditions: protein: recombinant;recombinant; tags: His (pET32a fusion);His (pET32a fusion); label: 3' biotin on both strands; blunt
[4] = molecular target: T3, MdEIL1 (labelled MdEIN3-HIS in the Fig. …); experiment: EMSA; MdEIL1 added to MdHY5 enhances binding; LightShift Chemiluminescent EMSA kit (Thermo); buffer, salt, pH and temperature not stated; cold probe 25x, 50x, 100x; conditions: protein: recombinant;recombinant; tags: His (pET32a fusion);His (pET32a fusion); label: 3' biotin on both strands; blunt
[5] = molecular target: T3, MdEIL1 (labelled MdEIN3-HIS in the Fig. …); experiment: EMSA; MdHY5 with MdEIL1 enhances binding; LightShift Chemiluminescent EMSA kit (Thermo); buffer, salt, pH and temperature not stated; cold probe 25x, 50x, 100x; conditions: protein: recombinant;recombinant; tags: His (pET32a fusion);His (pET32a fusion); label: 3' biotin on both strands; blunt

Row | Binder | binding result [1] | binding result [2] | also measured
1 | B1 | no binding |  | 
2 | B2 |  | binds | binding result [3]: binds
3 | B3 | binds |  | binding result [4]: binds
4 | B4 | no binding |  | 
5 | B5 |  | binds | binding result [5]: binds
